Experimental data as given in patent publication US20220289857A1 (Kyowa Kirin, published 2022).
Substitutions are numbered along the chain they refer to. Names and notes keep the numbering of the source. Values joined by “and” are separate entries in the source; they are usually repeats but may differ in a detail not shown here. Equal values may be shown once.

Columns and labels:
[1] = target: T1, human Fn14 (full length) on cells (human, UniProt Q9NP84 28-129); test: cell-based or functional assay
T1 sequence: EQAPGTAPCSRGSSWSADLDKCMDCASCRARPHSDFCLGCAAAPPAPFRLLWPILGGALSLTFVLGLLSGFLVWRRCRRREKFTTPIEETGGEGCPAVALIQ

[2] = target: T2, human Fn14 Subdomain 2 peptide (AA51-70), biotinylated (human, added C-terminal Lys carries Ahx-biotin; C-terminal amide); test: biolayer interferometry (ForteBio Octet); biotinylated peptide on streptavidin biosensor, response at 120 s of association
T2 peptide: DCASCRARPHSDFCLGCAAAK
Procedure: (§1) A ForteBio Octet Qke instrument (ForteBio) was used to measure the ability of purified antibodies to bind Fn14 peptides. The assays were performed at 30° C. in 96-well half area plates (Grenier, cat# 675076), with agitation set to 1000 rpm, in kinetic buffer (provided in the assay kit) to minimize nonspecific interactions. Biosensor tips were equilibrated in kinetic buffer for 600 s prior to use. Soluble biotinylated peptides (20 μg/ml, Subdomain 1 (AA30-50): […]-[K-Ahx-biotin]-amide (SEQ ID NO: 182) and Subdomain 2 (AA51-70): […]-[K-Ahx-biotin]-amide (SEQ ID NO: 183) synthesized by 21′ Century Biochemicals) in kinetic buffer were immobilized on streptavidin-coated biosensors (ForteBio, cat# 18-5020) for 300 seconds. […] Purified antibodies (20 μg/m1) were allowed to bind the immobilized peptides. Association was measured for 300 seconds, using the high sensitivity kinetics setting. To characterize the binding properties of the antibody candidates, the response (nm) at t =120 seconds from the start of the association step was recorded. All values were compared to a control sample (isotype antibody).

[3] = target: T3, human Fn14 Subdomain 1 peptide (AA30-50), biotinylated (human, added C-terminal Lys carries Ahx-biotin; C-terminal amide); test: biolayer interferometry (ForteBio Octet); biotinylated peptide on streptavidin biosensor, antibody in solution, response at 120 s of association
T3 peptide: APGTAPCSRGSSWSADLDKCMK
Procedure: as §1

[4] = target: T4, untagged human Fn14 extracellular domain (aa 28-75), SUMO-cleaved (human, UniProt Q9NP84 28-75); test: co-crystal structure
T4 construct: Electron density seen for residues 32-68; also called Fn14 (crystallization)
Procedure: Purified Fn14 and His-tagged 41c Fab or R35B9 Fab proteins were mixed in a 1:1 stoichiometric ratio, concentrated to 1 mg/mL and then subjected to crystallization. Initial crystallization trials were performed in a 96-well format using a nano-liter dispensing liquid handling robot (Phoenix, Art Robbins Ltd.) while mixing 0.15 μL protein with 0.15 μL precipitant from different commercially available crystallization screens (JCSG core+and JCSG core 1 screens). Over 200 crystallization conditions were tested using the sitting drop vapor diffusion method and crystallization trails were carried out at both 4° C. and 22° C. Optimization of all crystallization conditions was performed manually by both hanging drop and sitting drop methods. Crystals were obtained in various conditions containing PEG 3350 or PEG 6000 as the common precipitant and were grown over 3 days. […]
The structure had good geometry with 4 residues (0.89%) as outliers and 97.6% residues in favored region of the Ramachandran plot. Correspondingly, the structure of Fn14 -R35B9-His Fab complex was determined by molecular replacement using the phase information obtained from Fn14-41c-His Fab complex and the structure was refined to 2.3 Å with residual factors R/Rfree=20.9/23.3.

[5] = target: T5, cynomolgus macaque Fn14-GST (cynomolgus macaque (Macaca fascicularis)); test: SPR Biacore T200; cyno Fn14-GST captured by anti-GST, Fab analyte; 1:1 fit
T5 construct: Used from culture supernatant, captured by anti-GST; also called cyno Fn14-GST; CynoFn14
T5 sequence (chain, as listed by the source): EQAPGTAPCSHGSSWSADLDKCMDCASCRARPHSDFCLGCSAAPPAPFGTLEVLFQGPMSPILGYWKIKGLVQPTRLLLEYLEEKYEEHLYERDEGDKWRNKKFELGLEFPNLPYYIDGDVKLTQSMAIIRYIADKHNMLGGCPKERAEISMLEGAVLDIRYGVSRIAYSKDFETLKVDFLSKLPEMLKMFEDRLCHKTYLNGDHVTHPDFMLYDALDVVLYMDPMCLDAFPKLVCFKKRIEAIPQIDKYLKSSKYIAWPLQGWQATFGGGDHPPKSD
Procedure: (§2) In order to kinetically analyze the binding activity of anti-Fn14 mouse antibodies 41c, R35B9, and CRCBT-06-002 to recombinant human and cynomolgus macaque Fn14 proteins, the binding activity was measured by surface plasmon resonance method (SPR). Antibodies were generated as described herein. All of the following procedures were carried out using a Biacore T200 (GE Healthcare Bio-Sciences). To determine antibody affinity to human Fn14, recombinant human His-SUMO-Fn14 was immobilized on a CMS sensor chip (GE Healthcare Bio-Sciences) by amine coupling chemistry. In particular, the kinetic assay was carried out by immobilizing on the chip approximately 20-30 RU of recombinant protein, in order to achieve a low protein immobilization level. To determine antibody affinity to cynomolgus macaque Fn14, polyclonal anti-GST antibodies were immobilized on a CMS sensor chip (GE Healthcare Bio-Sciences) by amine coupling chemistry. In particular, after immobilizing approximately 1500 RU of anti-GST capture antibody onto the chip, cynomolgus macaque GST-Fn14 in culture supernatant was allowed to run for 5 minutes at a flow rate of 30 μL/min in order to achieve a low capture level of approximately 20 RU. Thereafter, antibody Fab fragments, serially diluted from a high concentration, were allowed to run at a flow rate of 30 μL/min onto the chip for 300 seconds. The dissociation time was 1800 seconds and the binding curves were measured at 25° C. Regeneration was performed with 10 mM glycine pH 1.5 for 30 seconds. The raw data were double referenced by subtraction of the signals from a reference flow cell without immobilized ligand and a buffer blank.
(§3) A sensorgram corresponding to each concentration was obtained (see FIG. 5). Analysis was carried out using a 1:1 Langmuir fit model using the analysis software attached to the apparatus, Biacore T200 Evaluation software (Biacore), thereby calculating an association rate constant ka [M-1s-1] and a dissociation rate constant kd [s-1] for the recombinant Fn14 proteins. […] Cross-reactivity of anti-Fn14 mouse antibodies to recombinant mouse GST-Fn14 protein was measured as described above.

mouse Fn14-GST = target: T6, mouse Fn14-GST (mouse); test: SPR (Biacore T200); mouse Fn14-GST captured by immobilized anti-GST antibody, analyte at 10 nM
T6 construct: also called mouse GST-Fn14
Procedure: (§4) In order to kinetically analyze the binding activity of anti-Fn14 mouse antibodies 41c, R35B9, and CRCBT-06-002 to recombinant human and cynomolgus macaque Fn14 proteins, the binding activity was measured by surface plasmon resonance method (SPR). Antibodies were generated as described herein. All of the following procedures were carried out using a Biacore T200 (GE Healthcare Bio-Sciences). To determine antibody affinity to human Fn14, recombinant human His-SUMO-Fn14 was immobilized on a CMS sensor chip (GE Healthcare Bio-Sciences) by amine coupling chemistry. In particular, the kinetic assay was carried out by immobilizing on the chip approximately 20-30 RU of recombinant protein, in order to achieve a low protein immobilization level. To determine antibody affinity to cynomolgus macaque Fn14, polyclonal anti-GST antibodies were immobilized on a CMS sensor chip (GE Healthcare Bio-Sciences) by amine coupling chemistry. […] The dissociation time was 1800 seconds and the binding curves were measured at 25° C. […]
(§5) A sensorgram corresponding to each concentration was obtained (see FIG. 5). […] Cross-reactivity of anti-Fn14 mouse antibodies to recombinant mouse GST-Fn14 protein was measured as described above.

[6] = target: T5, cynomolgus macaque Fn14-GST; test: SPR Biacore T200; cyno Fn14-GST captured by anti-GST, Fab analyte; average of two runs
Procedure: as §4, §5

[7] = target: T7, His-SUMO-huFn14 (soluble human Fn14 aa 28-75 with N-terminal 6xHis-SUMO tag) (human); test: SPR Biacore T200; His-SUMO-huFn14 amine-coupled, Fab analyte; 1:1 fit
T7 construct: also called His-SUMO-Fn14; His-SUMO-hFn14
T7 sequence (chain, as listed by the source limits assumed): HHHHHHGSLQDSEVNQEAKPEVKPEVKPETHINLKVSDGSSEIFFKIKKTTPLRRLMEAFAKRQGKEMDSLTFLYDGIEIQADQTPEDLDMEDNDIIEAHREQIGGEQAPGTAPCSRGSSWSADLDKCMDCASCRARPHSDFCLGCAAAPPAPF
Procedure: as §2, §3

[8] = target: T7, His-SUMO-huFn14 (soluble human Fn14 aa …); test: SPR Biacore T200; His-SUMO-huFn14 amine-coupled, Fab analyte; average of two runs
Procedure: as §4, §5

B1: 41c recombinant mouse IgG1(D265A), kappa antibody (A291/A290) (antibody, V domains shown)
VH: EVQLQQSGPELVKPGASVKMSCKASGYTFTDYNMHWVKQSHGKSLEWIGYINPNNGGTNYNQKFKGKATLTVNKSSRSAYMEFRSLTSEDSAVYYCASSGWFTYWGQGTLVTVSA
VL: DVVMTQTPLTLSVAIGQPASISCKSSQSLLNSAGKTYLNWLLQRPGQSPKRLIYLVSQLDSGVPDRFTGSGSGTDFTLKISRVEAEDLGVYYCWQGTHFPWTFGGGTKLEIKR
With B1 the “ICAM-1 MFI on HRMC, 250 ng/mL rhTWEAK, mAb 0.1 µg/mL” value [1] was 13100 MFI, the binding result [2] was “no binding (tested: 20 µg/mL)” and the binding result [3] was “binds”.

B2: R35B9-His Fab (recombinant, bacterial, for crystallization) (Fab, V domains shown)
VH: B1 VH with T28I, T30Q, Y50S, N54R, G57W
VL: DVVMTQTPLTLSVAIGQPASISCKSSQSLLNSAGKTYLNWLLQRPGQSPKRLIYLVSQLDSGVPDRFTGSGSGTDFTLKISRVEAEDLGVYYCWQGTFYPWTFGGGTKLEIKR
notes: also called R35B9 Fab-His
B2: binds [4].

B3: R35B9 Fab (enzymatic digest of the mouse IgG1 antibody) (Fab, V domains shown, not shown: a dimerising Fc or GST)
VH: B1 VH with T28I, T30Q, Y50S, N54R, G57W
VL: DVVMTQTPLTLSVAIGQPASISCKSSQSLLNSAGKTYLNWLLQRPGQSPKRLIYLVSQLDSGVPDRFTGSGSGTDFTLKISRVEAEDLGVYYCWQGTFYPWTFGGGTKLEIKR
notes: Made with the mouse IgG1 Fab and F(ab')2 preparation kit; also called R35B9 Fab LM042817
With B3 the Kd [5] was 235 pM and 222 pM, the koff [5] was 0.000342 s⁻¹ and 0.00038 s⁻¹ and the kon [5] was 1.46e+06 M⁻¹ s⁻¹ and 1.71e+06 M⁻¹ s⁻¹. The binding result (mouse Fn14-GST) was “binds”, the Kd [6] was 228 pM and the Kd [7] was 206 pM and 210 pM. For the same binder, the koff [7] was 0.00063 s⁻¹ and 0.000427 s⁻¹, the kon [7] was 3.07e+06 M⁻¹ s⁻¹ and 2.03e+06 M⁻¹ s⁻¹ and the Kd [8] was 208 pM.

B4: 41c-His Fab (recombinant, bacterial, for crystallization) (Fab, V domains shown)
VH: B1 VH
VL: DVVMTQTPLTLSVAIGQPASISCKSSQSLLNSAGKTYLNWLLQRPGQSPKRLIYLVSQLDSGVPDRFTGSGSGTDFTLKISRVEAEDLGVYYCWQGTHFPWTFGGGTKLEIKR
notes: Two extra N-terminal residues on each chain (Leu-Glu heavy, Ser-Arg light); C-terminal linker and 6xHis on the heavy chain; also called His-tagged 41c Fab
B4: binds [4].
